Source: the supplement of paper PMC11316812
± gives the standard deviation of the averaged measurements.

Experiments:
hTERT-HMEC = experiment: percentage of EdU-negative (G0-arrested) nuclei per well, 72 h; higher = more G0 arrest; conditions: reference: sequence is the full UniProt precursor, the tested protein was the secreted form or ectodomain
MCF7 = experiment: as above; conditions: reference: sequence is the full UniProt precursor, the tested protein was the secreted form or ectodomain
[1] = protein concentration 0.0225 µM
[2] = protein concentration 0.0257143 µM
[3] = protein concentration 0.257143 µM
[4] = protein concentration 0.0357143 µM
[5] = protein concentration 0.357143 µM
[6] = protein concentration 0.0191325 µM
[7] = protein concentration 0.191325 µM
[8] = protein concentration 0.023905 µM
[9] = protein concentration 0.23905 µM
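Further: secreted proteins added to cultured cells, EdU pulse at the end, nuclei found by Hoechst imaging, EdU status from nuclear versus surrounding ring intensity ratio, PBS as neutral control.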

For “MALHIHEACILLLVIPGLVTSAAISHEDYPADEGDQISSNDNLIFDDYRGKGCVDDSGFVYKLGERFFPGHSNCPCVCALDGPVCDQPECPKIHPKCTKVEHNGCCPECKEVKNFCEYHGKNYKILEEFKPSPCEWCRCEPSNEVHCVVADCAVPECVNPVYEPEQCCPVCKNGPNCFAGTTIIPAGIEVKVDECNICHCHNGDWWKPAQCSKRECQGKQTV [B2RUY7]”, the “percentage of EdU-negative” value (hTERT-HMEC; [1]) was 5.12 ± 0.14%, the “percentage of EdU-negative” value (hTERT-HMEC; protein concentration 0.225 µM) was 5.63 ± 0.95% and the “percentage of EdU-negative” value (MCF7; [1]) was 26.9 ± 1.9%. The “percentage of EdU-negative” value (MCF7; protein concentration 0.225 µM) was 25.9 ± 1.7%.
With “MKSLTWILGLWALAACFTPGESQRGPRGPYPPGPLAPPPPPCFPFGTGFVPPPHPPPYGPGRFPPPLSPPYGPGRIPPSPPPPYGPGRIQSHSLPPPYGPGYPQPPSQPRPYPPGPPFFPVNSPTDPALPTPAP” the “percentage of EdU-negative” value (hTERT-HMEC; [2]) was 5.63 ± 1.3%, the “percentage of EdU-negative” value (hTERT-HMEC; [3]) was 7.43 ± 0.82% and the “percentage of EdU-negative” value (MCF7; [2]) was 22.6 ± 1%. The “percentage of EdU-negative” value (MCF7; [3]) was 26.45 ± 0.12%.
In the case of “MKVSVAALSCLMLVAVLGSQAQFTNDAETELMMSKLPLENPVVLNSFHFAADCCTSYISQSIPCSLMKSYFETSSECSKPGVIFLTKKGRQVCAKPSGPGVQDCMKKLKPYSI”, the “percentage of EdU-negative” value (hTERT-HMEC; [4]) is reported as 4.77 ± 0.69%, the “percentage of EdU-negative” value (hTERT-HMEC; [5]) is reported as 4.52 ± 1.2% and the “percentage of EdU-negative” value (MCF7; [4]) is reported as 24.9 ± 0.52%. For the same sequence, the “percentage of EdU-negative” value (MCF7; [5]) was 25.2 ± 0.81%.
With “MLLPWATSAPGLAWGPLVLGLFGLLAASQPQAVPPYASENQTCRDQEKEYYEPQHRICCSRCPPGTYVSAKCSRIRDTVCATCAENSYNEHWNYLTICQLCRPCDPVMGLEEIAPCTSKRKTQCRCQPGMFCAAWALECTHCELLSDCPPGTEAELKDEVGKGNNHCVPCKAGHFQNTSSPSARCQPHTRCENQGLVEAAPGTAQSDTTCKNPLEPLPPEMSGTMLMLAVLLPLAFFLLLATVFSCIWKSHPSLCRKLGSLLKRRPQGEGPNPVAGSWEPPKAHPYFPDLVQPLLPISGDVSPVSTGLPAAPVLEAGVPQQQSPLDLTREPQLEPGEQSQVAHGTNGIHVTGGSMTITGNIYIYNGPVLGGPPGPGDLPATPEPPYPIPEEGDPGPPGLSTPHQEDGKAWHLAETEHCGATPSNRGPRNQFITHD” the “percentage of EdU-negative” value (hTERT-HMEC; [6]) was 5.06 ± 0.25%, the “percentage of EdU-negative” value (hTERT-HMEC; [7]) was 5.55 ± 1.9% and the “percentage of EdU-negative” value (MCF7; [6]) was 26.7 ± 0.76%. For the same sequence, the “percentage of EdU-negative” value (MCF7; [7]) was 27.3 ± 0.76%.
With “MWLLVSVILISRISSVGGEAMFCDFPKINHGILYDEEKYKPFSQVPTGEVFYYSCEYNFVSPSKSFWTRITCAEEGWSPTPKCLRLCFFPFVENGHSESSGQTHLEGDTVQIICNTGYRLQNNENNISCVERGWSTPPKCRSTISAEKCGPPPPIDNGDITSFLLSVYAPGSSVEYQCQNLYQLEGNNQITCRNGQWSEPPKCLDPCVISQEIMEKYNIKLKWTNQQKLYSRTGDIVEFVCKSGYHPTKSHSFRAMCQNGKLVYPSCEEK” the “percentage of EdU-negative” value (hTERT-HMEC; [4]) was 5.7 ± 0.61%, the “percentage of EdU-negative” value (hTERT-HMEC; [5]) was 17.5 ± 3.6% and the “percentage of EdU-negative” value (MCF7; [4]) was 26.5 ± 2.9%. For the same sequence, the “percentage of EdU-negative” value (MCF7; [5]) was 27.9 ± 1.9%.
In the case of “MGAAARLSAPRALVLWAALGAAAHIGPAPDPEDWWSYKDNLQGNFVPGPPFWGLVNAAWSLCAVGKRQSPVDVELKRVLYDPFLPPLRLSTGGEKLRGTLYNTGRHVSFLPAPRPVVNVSGGPLLYSHRLSELRLLFGARDGAGSEHQINHQGFSAEVQLIHFNQELYGNFSAASRGPNGLAILSLFVNVASTSNPFLSRLLNRDTITRISYKNDAYFLQDLSLELLFPESFGFITYQGSLSTPPCSETVTWILIDRALNITSLQMHSLRLLSQNPPSQIFQSLSGNSRPLQPLAHRALRGNRDPRHPERRCRGPNYRLHVDGVPHGR”, the “percentage of EdU-negative” value (hTERT-HMEC; protein concentration 0.021 µM) is reported as 4.83 ± 0.27%, the “percentage of EdU-negative” value (hTERT-HMEC; protein concentration 0.21 µM) is reported as 7.53 ± 1.3% and the “percentage of EdU-negative” value (MCF7; protein concentration 0.021 µM) is reported as 25.5 ± 1.3%. For the same sequence, the “percentage of EdU-negative” value (MCF7; protein concentration 0.21 µM) was 24.9 ± 0.45%.
With “MAPRRARGCRTLGLPALLLLLLLRPPATRGITCPPPMSVEHADIWVKSYSLYSRERYICNSGFKRKAGTSSLTECVLNKATNVAHWTTPSLKCIRDPALVHQRPAPPSTVTTAGVTPQPESLSPSGKEPAASSPSSNNTAATTAAIVPGSQLMPSKSPSTGTTEISSHESSHGTPSQTTAKNWELTASASHQPPGVYPQGHSDTTVAISTSTVLLCGLSAVSLLACYLKSRQTPPLASVEMEAMEALPVTWGTSSRDEDLENCSHHL” the “percentage of EdU-negative” value (hTERT-HMEC; [8]) was 5.18 ± 0.25%, the “percentage of EdU-negative” value (hTERT-HMEC; [9]) was 6.6 ± 0.68% and the “percentage of EdU-negative” value (MCF7; [8]) was 27.1 ± 0.76%. For the same sequence, the “percentage of EdU-negative” value (MCF7; [9]) was 25.6 ± 2.6%.
With “MNRFLLLMSLYLLGSARGTSSQPNELSGSIDHQTSVQQLPGEFFSLENPSDAEALYETSSGLNTLSEHGSSEHGSSKHTVAEHTSGEHAESEHASGEPAATEHAEGEHTVGEQPSGEQPSGEHLSGEQPLSELESGEQPSDEQPSGEHGSGEQPSGEQASGEQPSGEHASGEQASGAPISSTSTGTILNCYTCAYMNDQGKCLRGEGTCITQNSQQCMLKKIFEGGKLQFMVQGCENMCPSMNLFSHGTRMQIICCRNQSFCNKI” the “percentage of EdU-negative” value (hTERT-HMEC; [4]) was 6.06 ± 0.83%, the “percentage of EdU-negative” value (hTERT-HMEC; [5]) was 9.78 ± 0.68% and the “percentage of EdU-negative” value (MCF7; [4]) was 24.76 ± 0.1%. The “percentage of EdU-negative” value (MCF7; [5]) was 27.1 ± 1.2%.
